The source of these data is publication PMC5560778.

In test [1] the target is NaV1.5 α subunit, DIV voltage clamp fluorometry construct (S1618C), labelled with MTS-TAMRA (human) (UniProt Q14524).
The target in test [2] is NaV1.5 α subunit, DIII LFS voltage clamp fluorometry construct (M1296C), labelled with MTS-TAMRA (human) (UniProt Q14524).
Test [3] shares this target. The source holds these as a separate data set.
Test [4] concerns the target A1330W mutant NaV1.5 channel in the DIII-M1296C VCF construct, labelled with MTS-TAMRA (human) (UniProt Q14524).

For “WT NaV β1 subunit (from UniProt Q07699-1 19-218) (natural protein)”, the depolarizing shift of the DIV F-V curve (voltage clamp fluorometry in oocytes), α with β1 against α alone in test [1] is 31.3 mV.

In the case of β3-NTM β1-C chimera, the depolarizing shift of the DIII F-V curve (voltage clamp fluorometry in oocytes), α with chimera against α alone in test [2] was found to be 22.9 mV.

B1: WT NaV β3 subunit (natural protein)
chain: FPVCVEVPSETEAVQGNPMKLRCISCMKREEVEATTVVEWFYRPEGGKDFLIYEYRNGHQEVESPFQGRLQWNGSKDLQDVSITVLNVTLNDSGLYTCNVSREFEFEAHRPFVKTTRLIPLRVTEEAGEDFTSVVSEIMMYILLVFLTLWLLIEMIYCYRKVSKAEEAAQENASDYLAIPSENKENSAVPVEE
Consider B1, for which the depolarizing shift of the DIII F-V curve (voltage clamp fluorometry in oocytes), α with β3 against α alone in test [3] was found to be 20.7 mV. Besides, in test [4], the depolarizing shift of the DIII F-V curve (voltage clamp fluorometry in oocytes), A1330W with β3 against A1330W alone turned out to be 22.6 mV.
